Measurements reported in patent US20230250160A1 (HOBER BIOTECH, published 2023).
Read-outs that look alike come from different tables or passages of the source. Each block holds one binder with its values, some of them ahead of it.

Assays:
[1] = target: T1, myeloid-derived growth factor (human (produced in the Human Secretome …, UniProt Q969H8 32-173, limits assumed)); assay: SPR Biacore T200, target on CM5 chip, ADAPT injected, 1:1 fit
T1 construct: also called MYDGF; bMYDGF
T1 sequence (looked up): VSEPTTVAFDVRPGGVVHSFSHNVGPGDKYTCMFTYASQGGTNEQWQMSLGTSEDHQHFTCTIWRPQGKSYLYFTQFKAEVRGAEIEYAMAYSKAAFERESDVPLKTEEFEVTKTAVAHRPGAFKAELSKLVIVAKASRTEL
Experimental: (§1) Sensor-based binding analysis was performed using a Biacore T200 system (GE Healthcare, Stockholm, Sweden). All analyses were conducted using CM-5 sensor chips coated with the target antigen, another irrelevant antigen and HSA. One surface was left as reference. Binding analysis was performed in PBS-T at 25° C. The ADAPT variants were diluted in PBS-T to 500 nM, 250 nM, 125 nM, 62.5 nM and 31.25 nM. The samples were injected at a flow rate of 30 ul/min for 120 s followed by injection of PBS-T for 240 s to monitor the dissociation. Surfaces were regenerated with 10 mM HCl. Kinetic parameters were determined using the Biacore Insight Evaluation software, assuming a 1:1 binding.

Human Serum Albumin [2] = target: T2, Human Serum Albumin (human, UniProt P02768 25-609); assay: SPR Biacore T200, HSA on CM5 chip, ADAPT injected, 1:1 fit
T2 construct: also called HSA
Experimental: as §1

[3] = target: T1, myeloid-derived growth factor; assay: SPR Biacore T200, target on CM5 chip, ADAPT injected, 1:1 fit; remark: listed apart in the source
Experimental: as §1
(§2) Variants with sufficient alpha helical structure as well as monomeric elution profiles on the SEC column were further analyzed for binding towards their target protein as well as to HSA. The binding towards the target antigen used in the selection was measured by a multi-cycle analysis using SPR, showing that several binders had affinities in the μM-pM range. […] After target binding had been established, the variants were also evaluated for their ability to simultaneously bind to HSA. This was done either through an SPR capture assay or an experiment where the ADAPT was pre-incubated with saturating conditions of HSA before the binding towards the target was analyzed. […] In total, thirteen of the characterized binders from the selections towards TNFα, PSA, ANG, MYDGF and Insulin could bind both HSA and its target antigen simultaneously. FIG. 5 contains sensorgrams for the thirteen variants in the capture assay.

Human Serum Albumin [4] = target: T2, Human Serum Albumin; assay: SPR Biacore T200, HSA on CM5 chip, ADAPT injected, 1:1 fit; remark: listed apart in the source
Experimental: as §1

[5] = target: T3, Human recombinant Insulin (human, UniProt P01308 25-54; P01308 90-110, limits assumed); assay: SPR Biacore T200, target on CM5 chip, ADAPT injected, 1:1 fit
T3 construct: also called bInsulin
Experimental: as §1

Her2 = target: T4, Her2 (UniProt P04626 23-652, limits assumed); assay: SPR (Biacore), ADAPT injected alone at 31.25-500 nM over immobilised Her2 (irrelevant target)
T4 construct: also called irrelevant target Her2
Experimental: as §1
Variants with sufficient alpha helical structure as well as monomeric elution profiles on the SEC column were further analyzed for binding towards their target protein as well as to HSA. The binding towards the target antigen used in the selection was measured by a multi-cycle analysis using SPR, showing that several binders had affinities in the μM-pM range. […] After target binding had been established, the variants were also evaluated for their ability to simultaneously bind to HSA. This was done either through an SPR capture assay or an experiment where the ADAPT was pre-incubated with saturating conditions of HSA before the binding towards the target was analyzed. […]

[6] = target: T3, Human recombinant Insulin; assay: SPR Biacore T200, target on CM5 chip, ADAPT injected, 1:1 fit; remark: listed apart in the source
Experimental: as §1, §2

T2 sequence (P02768 25-609 limits assumed): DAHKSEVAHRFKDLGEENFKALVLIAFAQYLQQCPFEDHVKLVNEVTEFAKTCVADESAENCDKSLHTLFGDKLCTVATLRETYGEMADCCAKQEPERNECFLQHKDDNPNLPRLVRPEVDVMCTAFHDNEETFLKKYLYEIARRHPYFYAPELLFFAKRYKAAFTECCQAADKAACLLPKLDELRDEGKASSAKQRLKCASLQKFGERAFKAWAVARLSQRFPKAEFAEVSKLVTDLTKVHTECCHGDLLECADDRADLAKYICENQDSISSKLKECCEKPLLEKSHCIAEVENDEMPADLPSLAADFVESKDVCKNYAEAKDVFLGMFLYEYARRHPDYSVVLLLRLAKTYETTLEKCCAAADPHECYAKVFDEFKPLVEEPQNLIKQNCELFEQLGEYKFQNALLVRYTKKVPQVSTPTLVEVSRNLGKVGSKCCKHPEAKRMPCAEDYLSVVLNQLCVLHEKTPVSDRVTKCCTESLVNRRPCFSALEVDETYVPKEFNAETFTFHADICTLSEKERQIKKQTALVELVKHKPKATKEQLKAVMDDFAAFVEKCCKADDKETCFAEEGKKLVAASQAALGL
T3 sequence (P01308 25-54 limits assumed, chain 1 of 2): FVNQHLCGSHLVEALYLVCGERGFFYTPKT
T3 sequence (P01308 90-110 limits assumed, chain 2 of 2): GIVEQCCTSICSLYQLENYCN

- Kd [1]: 230 nM
- koff [1]: 0.082 s⁻¹
- kon [1]: 350000 M⁻¹ s⁻¹
- Kd (Human Serum Albumin [2]): 4.7 nM
- koff (Human Serum Albumin [2]): 0.00014 s⁻¹
- kon (Human Serum Albumin [2]): 30000 M⁻¹ s⁻¹
- Kd [3]: 230 nM
- Kd (Human Serum Albumin [4]): 4.7 nM
B1: ADAPT variant MYDGF_07 (designed binder)
chain: LWWAKVWAVAELQKYGVSDFYFKLIDKAKTVEGVEALKLHILAALP

- Kd [5]: 670 nM
- koff [5]: 0.12 s⁻¹
- kon [5]: 180000 M⁻¹ s⁻¹
- binding result (Her2): no binding (tested: 500 nM)
- Kd (Human Serum Albumin [2]): 1.5 nM
- koff (Human Serum Albumin [2]): 0.00093 s⁻¹
- kon (Human Serum Albumin [2]): 640000 M⁻¹ s⁻¹
- Kd [6]: 670 nM
- Kd (Human Serum Albumin [4]): 1.5 nM
B2: ADAPT variant Insulin_02 (designed binder)
chain: LAIAKAYAQYELSFYGVSDFYRELIVKAKTVEGVEALKLHILAALP
notes: also called INS_02

- Kd [1]: 180 nM
- koff [1]: 0.18 s⁻¹
- kon [1]: 1e+06 M⁻¹ s⁻¹
- Kd (Human Serum Albumin [2]): 12 nM
- koff (Human Serum Albumin [2]): 0.00028 s⁻¹
- kon (Human Serum Albumin [2]): 23000 M⁻¹ s⁻¹
- Kd [3]: 180 nM
- Kd (Human Serum Albumin [4]): 12 nM
B3: ADAPT variant MYDGF_08 (designed binder)
chain: LWWAKVSAIKELQAYGVSDFYYMLITKAKTVEGVEALKLHILAALP
